Experimental data published in US20110129478A1.

Key:
[1] = target: human CD179b protein on the cell membrane surface of human cancer cell lines (human) (UniProt P15814); assay: cell-based or functional assay
[2] = target: human CD179b protein on the cell membrane surface of human cancer cell lines (human) (UniProt P15814); assay: flow cytometry on human cancer cell lines expressing CD179b, against mouse IgG2a isotype control

Sequence of UniProt P15814 (P15814 38-213): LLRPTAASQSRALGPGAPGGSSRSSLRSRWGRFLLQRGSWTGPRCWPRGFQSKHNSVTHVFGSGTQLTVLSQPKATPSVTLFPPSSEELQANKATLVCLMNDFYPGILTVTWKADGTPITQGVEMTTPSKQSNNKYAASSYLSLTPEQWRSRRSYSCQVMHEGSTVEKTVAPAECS

mouse anti-human CD179b antibody (clone name: GA170; manufactured by Santa Cruz Biotechnology)
ADCC activity (chromium 51 release), BDCM cells [1]: 32.3%
ADCC activity (chromium 51 release), Namalwa cells [1]: 32.6%
ADCC activity (chromium 51 release), RPMI1788 cells [1]: 28.3%
CDC activity (chromium 51 release), BDCM cells [1]: 21.2%
CDC activity (chromium 51 release), Namalwa cells [1]: 30.5%
CDC activity (chromium 51 release), RPMI1788 cells [1]: 30.5%
fluorescence intensity higher than that of the isotype control [2]: > 10%
